Numbering of substitutions follows the chain as printed. One block for each binder: values may come before it.
Columns and labels:
[1] = molecular target: T1, human FcγRIIIaV extracellular domain, His-tagged (human, UniProt P08637 17-208); assay: SPR Biacore, KD(SG1)/KD(variant)
T1 construct: also called FcgRIIIaV; not shown: C-terminal His-tag

[2] = molecular target: T2, cynomolgus monkey FcγRIIa3 extracellular domain, His-tagged (cynomolgus monkey); assay: SPR Biacore, KD(SG1)/KD(variant)
T2 construct: also called cyno FcγRIIa3; cynoFcgRIIa3; not shown: C-terminal His-tag
T2 chain: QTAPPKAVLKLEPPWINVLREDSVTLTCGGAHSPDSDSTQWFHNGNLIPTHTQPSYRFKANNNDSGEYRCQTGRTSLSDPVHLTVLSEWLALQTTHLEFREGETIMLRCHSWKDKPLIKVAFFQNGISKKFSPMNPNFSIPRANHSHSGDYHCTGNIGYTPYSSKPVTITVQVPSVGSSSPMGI

[3] = molecular target: T3, human FcγRIIaR extracellular domain with C-terminal His-tag (human, UniProt P12318 34-217); assay: SPR (Biacore), KD of SG1 / KD of variant
T3 construct: also called human FcgRIIaR; FcγRIIa (type R)
T3 chain: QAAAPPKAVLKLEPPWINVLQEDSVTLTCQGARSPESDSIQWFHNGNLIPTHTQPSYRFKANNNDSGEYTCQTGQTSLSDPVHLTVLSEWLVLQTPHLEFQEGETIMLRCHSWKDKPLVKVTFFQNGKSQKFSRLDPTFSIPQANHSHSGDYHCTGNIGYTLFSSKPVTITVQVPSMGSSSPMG

[4] = molecular target: T4, cynomolgus monkey FcγRIIa3 extracellular domain with C-terminal His-tag (cynomolgus monkey); assay: SPR (Biacore), KD of SG1 / KD of variant
T4 construct: also called cyno FcgRIIa3; cynoFcγRIIa3
T4 chain: T2 chain

[5] = molecular target: T5, human FcγRIIb extracellular domain with C-terminal His-tag (human, UniProt P31994 43-217); assay: SPR (Biacore), KD of SG1 / KD of variant
T5 construct: also called human FcgRIIb
T5 sequence: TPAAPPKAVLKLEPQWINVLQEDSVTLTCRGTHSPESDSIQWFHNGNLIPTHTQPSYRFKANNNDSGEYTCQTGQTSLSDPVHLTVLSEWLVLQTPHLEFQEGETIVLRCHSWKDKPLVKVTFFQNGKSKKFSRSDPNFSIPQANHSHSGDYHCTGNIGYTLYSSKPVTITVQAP

[6] = molecular target: T5, human FcγRIIb extracellular domain with …; assay: SPR (Biacore), antibody captured, FcgR analyte
[7] = molecular target: T6, human FcγRIIIaV extracellular domain with C-terminal His-tag (human, UniProt P08637 17-208); assay: SPR (Biacore), antibody captured, FcgR analyte
T6 construct: also called human FcgRIIIaV

[8] = molecular target: T7, cynomolgus monkey FcγRIIa2 extracellular domain with C-terminal His-tag (cynomolgus monkey); assay: SPR (Biacore), KD of SG1 / KD of variant
T7 construct: also called cyno FcgRIIa2; cynoFcγRIIa2
T7 chain: T2 chain with I127K, K130N, P133H, R142Q

[9] = molecular target: T8, cynomolgus monkey FcγRIIa1 extracellular domain with C-terminal His-tag (cynomolgus monkey); assay: SPR (Biacore), antibody captured, FcgR analyte
T8 construct: also called cyno FcgRIIa1; cynoFcγRIIa1
T8 chain: T2 chain with T95P, A121T, S128A, P133H, N135D

[10] = molecular target: T3, human FcγRIIaR extracellular domain …; assay: SPR (Biacore), antibody captured, FcgR analyte
[11] = molecular target: T4, cynomolgus monkey FcγRIIa3 …; assay: SPR (Biacore), antibody captured, FcgR analyte
[12] = molecular target: T9, human FcγRIIaH extracellular domain with C-terminal His-tag (human, UniProt P12318 34-217); assay: SPR (Biacore), antibody captured, FcgR analyte
T9 construct: also called human FcgRIIaH; FcγRIIa (type H)
T9 sequence: T3 chain with R134H

[13] = molecular target: T6, human FcγRIIIaV extracellular domain …; assay: SPR (Biacore), KD of SG1 / KD of variant
[14] = molecular target: T10, cynomolgus monkey FcγRIIb extracellular domain with C-terminal His-tag (cynomolgus monkey); assay: SPR (Biacore), KD of SG1 / KD of variant
T10 construct: also called cyno FcgRIIb; cynoFcγRIIb
T10 chain: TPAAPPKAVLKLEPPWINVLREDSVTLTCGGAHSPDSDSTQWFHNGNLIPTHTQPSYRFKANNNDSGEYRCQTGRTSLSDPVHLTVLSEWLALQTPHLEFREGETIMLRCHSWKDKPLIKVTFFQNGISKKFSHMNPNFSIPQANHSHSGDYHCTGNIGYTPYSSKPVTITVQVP

[15] = molecular target: T9, human FcγRIIaH extracellular domain …; assay: SPR (Biacore), KD of SG1 / KD of variant
[16] = molecular target: T7, cynomolgus monkey FcγRIIa2 …; assay: SPR (Biacore), antibody captured, FcgR analyte
[17] = molecular target: T11, cynomolgus monkey FcγRIIa3 extracellular domain, His-tagged (cynomolgus monkey); assay: SPR (BIACORE), antibody captured on chip, soluble FcgR as analyte, 25 C
T11 construct: also called cyno FcgRIIa3; cynoFcγRIIa3; not shown: His-tag added to the C-terminus
T11 chain: T2 chain
Method: (§1) The kinetic analysis of interactions between these antibodies and FcγR was carried out using BIACORE® T200 or BIACORE® 4000 (GE Healthcare). HBS-EP+ (GE Healthcare) was used as the running buffer, and the measurement temperature was set to 25° C. […] After the measurement, the antibody captured on the chip was washed off by allowing reaction with 10 mM glycine-HCl, pH1.5 and 25 mM NaOH so that the chip was regenerated and used repeatedly. The sensorgrams obtained as measurement results were analyzed by the 1:1 Langmuir binding model using the BIACORE® Evaluation Software to calculate the binding rate constant ka (L/mol/s) and dissociation rate constant kd (1/s), and the dissociation constant KD (mol/L) was calculated from these values. […] Regarding such interactions, KD values were calculated using the following 1:1 binding model described in BIACORE® T100 Software Handbook BR1006-48 Edition AE.

[18] = molecular target: T12, cynomolgus monkey FcγRIIIaS extracellular domain, His-tagged (cynomolgus monkey, UniProt A3RFZ7 21-206 (rhesus entry)); assay: as above
T12 construct: also called cyno FcgRIIIaS; cynoFcγRIIIaS; not shown: His-tag added to the C-terminus
Method: as §1

[19] = molecular target: T13, human FcγRIIb extracellular domain, His-tagged (human, UniProt P31994 43-217); assay: as above
T13 construct: also called human FcgRIIb; not shown: His-tag added to the C-terminus
T13 sequence: T5 sequence
Method: as §1

T6 sequence (P08637 17-208 F176V): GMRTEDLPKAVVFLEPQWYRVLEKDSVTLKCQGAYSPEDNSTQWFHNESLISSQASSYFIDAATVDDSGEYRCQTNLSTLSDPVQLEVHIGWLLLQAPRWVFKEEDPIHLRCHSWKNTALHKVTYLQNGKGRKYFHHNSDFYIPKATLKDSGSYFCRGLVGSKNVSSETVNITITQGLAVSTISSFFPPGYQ
T1 sequence (P08637 17-208 F176V): as above
T12 sequence (A3RFZ7 21-206): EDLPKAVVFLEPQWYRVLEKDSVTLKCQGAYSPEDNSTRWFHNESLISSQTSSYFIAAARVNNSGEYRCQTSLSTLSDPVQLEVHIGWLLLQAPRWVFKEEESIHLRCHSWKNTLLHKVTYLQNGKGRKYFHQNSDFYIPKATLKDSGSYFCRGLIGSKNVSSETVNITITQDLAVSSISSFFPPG

- Kd [6]: 2300 nM
- KD fold (SG1 = 1) [3]: 2.3 fold
B4: M103205H795-MY470/M103202L889-SK1 (antibody)
chain 1: QVTLKESGPVLVKPTETLTLTCTVSGIDLSHDDISWVRQAPGKGLEWVGIISYAGSTYYASWAKGRLTISKDTSKNQVVLTMTNMDPVDTATYYCARGVPAYSHGGDLWGQGTLVTVSSASTKGPSVFPLAPSSKSTSGGTAALGCLVKDYFPEPVTVSWNSGALTSGVHTFPAVLQSSGLYSLSSVVTVPSSSLGTQTYICNVNHKPSNTKVDKKVEPKSCDKTHTCPPCPQPELLTGPSVFLFPPKPKDTLMISRTPEVTCVVVDVSDEDPEVKFNWYVDGVEVHNAKTKPREEQYNSTYRVVSVLTVLHQDWLNGKEYKCKVSNKALPKPIEKTISKAKGQPREPQVYTLPPSREEMTKNQVSLTCLVKGFYPSDIAVEWESNGQPENNYKTTPPVLDSDGSFFLYSKLTVDKSRWQQGNVFSCSVMHEALHNHYTQKSLSLSP
chain 2: DIVMTQSPATLSLSPGERATLSCTSSQSVYHANWLSWFQQKPGQPPKLLIYWASTLAYGVPSRFSGSGSGTDFTLTISSLQPEDAATYYCAGGYGGGRYAFGQGTKVEIKRTVAAPSVFIFPPSDEQLKSGTASVVCLLNNFYPREAKVQWKVDNALQSGNSQESVTEQDSKDSTYSLSSTLTLSKADYEKHKVYACEVTHQGLSSPVTKSFNRGEC

- Kd [16]: 2900 nM
B7: M103205H795-MY455/M103202L889-SK1 (antibody, human IgG1, kappa)
heavy: B4 chain 1 with Q233A, P234T
light: B4 chain 2
notes: Substitutions in EU numbering on SG1

- Kd [17]: 55000 nM
- Kd [18]: 2400 nM
- Kd [19]: 53 nM
B10: M103205H795-MY261/M103202L889-SK1 (antibody, human IgG1, kappa, name in EU numbering)
heavy: B4 chain 1 with Q233A, T238H
light: B4 chain 2
notes: Asn at EU 236 of MY201 replaced with His

The next lines start with the binder.

B1: M103205H795-MY037/M103202L889-SK1 (antibody, human IgG1, kappa, name in EU numbering)
heavy: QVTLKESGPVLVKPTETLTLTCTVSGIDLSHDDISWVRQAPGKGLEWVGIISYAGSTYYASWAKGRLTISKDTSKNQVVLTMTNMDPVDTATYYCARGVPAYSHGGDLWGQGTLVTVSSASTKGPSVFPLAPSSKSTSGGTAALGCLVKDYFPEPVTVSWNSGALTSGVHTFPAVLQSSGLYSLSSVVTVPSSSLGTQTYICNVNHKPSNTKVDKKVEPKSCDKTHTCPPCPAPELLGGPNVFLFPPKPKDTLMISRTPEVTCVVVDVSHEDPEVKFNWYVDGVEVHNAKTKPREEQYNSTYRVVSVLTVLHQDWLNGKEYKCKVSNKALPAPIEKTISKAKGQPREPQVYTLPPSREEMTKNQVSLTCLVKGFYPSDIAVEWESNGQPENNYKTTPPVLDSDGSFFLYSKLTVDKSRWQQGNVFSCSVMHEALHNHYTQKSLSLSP
light: B4 chain 2
notes: Substitution introduced into M103205H795-SG1; EU numbering
- KD fold (SG1 = 1) [1]: 2.19 fold
- KD fold (SG1 = 1) [2]: 1.6 fold

B2: M103205H795-MY471/M103202L889-SK1 (antibody)
chain 1: B4 chain 1 with Q233R
chain 2: B4 chain 2
- KD fold (SG1 = 1) [3]: 2.3 fold
- KD fold (SG1 = 1) [4]: 3.5 fold
- KD fold (SG1 = 1) [5]: 1.6 fold

B3: M103205H795-MY463/M103202L889-SK1 (antibody)
chain 1: B4 chain 1 with Q233H
chain 2: B4 chain 2
- Kd [6]: 2300 nM
- Kd [7]: 4800 nM
- KD fold (SG1 = 1) [8]: 2.8 fold

B5: M103205H795-MY453/M103202L889-SK1 (antibody, human IgG1, kappa)
heavy: B4 chain 1 with Q233A, P234R
light: B4 chain 2
notes: as for B7
- Kd [9]: 6200 nM
- Kd [10]: 16 nM
- Kd [7]: 1400 nM

B6: M103205H795-MY461/M103202L889-SK1 (antibody)
heavy: B4 chain 1 with Q233F
light: B4 chain 2
notes: as for B7
- Kd [9]: 1800 nM
- Kd [11]: 3500 nM
- Kd [12]: 180 nM
- KD fold (SG1 = 1) [8]: 2.8 fold
- KD fold (SG1 = 1) [13]: 0.2 fold
- KD fold (SG1 = 1) [14]: 3.6 fold
- KD fold (SG1 = 1) [15]: 3.6 fold

B8: M103205H795-MY462/M103202L889-SK1 (antibody)
heavy: B4 chain 1 with Q233G
light: B4 chain 2
notes: as for B7
- Kd [16]: 1800 nM
- KD fold (SG1 = 1) [13]: 0.2 fold
- KD fold (SG1 = 1) [14]: 3.6 fold

B9: M103205H795-MY474/M103202L889-SK1 (antibody)
heavy: B4 chain 1 with Q233V
light: B4 chain 2
notes: as for B7
- Kd [12]: 130 nM
- KD fold (SG1 = 1) [5]: 2.9 fold

— patent US20250076311A1 (Chugai, published 2025)
